From patent US20210196796A1 (SYNTHEKINE, published 2021)

T1: orthogonal hCD122 receptor (hoRb), hCD122 with H133D and Y134F (human, UniProt P14784 27-550)
T1 sequence: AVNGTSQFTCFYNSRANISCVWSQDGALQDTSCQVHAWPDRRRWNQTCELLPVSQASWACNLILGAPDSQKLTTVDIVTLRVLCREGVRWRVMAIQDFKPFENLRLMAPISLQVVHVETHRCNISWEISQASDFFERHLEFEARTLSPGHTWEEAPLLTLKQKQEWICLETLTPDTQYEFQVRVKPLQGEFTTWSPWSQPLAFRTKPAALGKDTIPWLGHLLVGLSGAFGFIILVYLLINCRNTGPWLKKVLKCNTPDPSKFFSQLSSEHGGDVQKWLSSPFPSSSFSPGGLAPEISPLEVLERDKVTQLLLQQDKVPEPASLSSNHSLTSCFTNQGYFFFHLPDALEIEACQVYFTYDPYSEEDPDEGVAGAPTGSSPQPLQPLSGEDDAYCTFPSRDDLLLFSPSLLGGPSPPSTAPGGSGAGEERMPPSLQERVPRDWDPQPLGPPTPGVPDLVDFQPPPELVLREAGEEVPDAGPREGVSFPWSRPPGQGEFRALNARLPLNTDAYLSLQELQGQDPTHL


Columns and labels:
[1] = molecular target: T1, orthogonal hCD122 receptor (hoRb), …; assay: cell-based or functional assay
[2] = molecular target: T1, orthogonal hCD122 receptor (hoRb), …; assay: cell-based or functional assay; remark: listed apart in the source
Wherever Relative Proliferation Fold Change 3F8 1:10 is given: reference of the scale not given here.
Wherever Relative Proliferation Fold Change 3F8 1:2 is given: reference of the scale not given here.
Wherever Relative Proliferation Fold Change 3F8 1:50 is given: reference of the scale not given here.
Wherever Relative Proliferation Fold Change NKL 1:10 is given: reference of the scale not given here.
Wherever Relative Proliferation Fold Change NKL 1:2 is given: reference of the scale not given here.
Wherever Relative Proliferation Fold Change NKL 1:50 is given: reference of the scale not given here.

3F8 Ortho Proliferation Signal 1:2 [1] | 3F8 Ortho Proliferation Signal 1:10 [1] | 3F8 Ortho Proliferation Signal 1:50 [1] | Relative Proliferation Fold Change 3F8 1:2 [1] | Relative Proliferation Fold Change 3F8 1:10 [1] | Relative Proliferation Fold Change 3F8 1:50 [1] | NKL Ortho Proliferation Signal 1:2 [2] | NKL Ortho Proliferation Signal 1:10 [2] | NKL Ortho Proliferation Signal 1:50 [2] | Relative Proliferation Fold Change NKL 1:2 [2] | Relative Proliferation Fold Change NKL 1:10 [2] | Relative Proliferation Fold Change NKL 1:50 [2] | Binder
39200 cts/min | 32200 cts/min | 14200 cts/min | 68.3 fold | 28.2 fold | 17.2 fold | 65300 | 73700 | 34800 | 4.19 fold | 4.03 fold | 1.93 fold | T3Q, SQVLKA (ligand) APQSSSTKKTQLQLSQLLVLLKAILNGINNYKNPKLTRMLTFKFYMPKKATELKHLQCLEEELKPLEEVLNLAQSKNFHLRPRDLISNINVIVLELKGSETTFMCEYADETATIVEFLNRWITFCQSIISTLT
36100 cts/min | 36200 cts/min | 18900 cts/min | 20.8 fold | 45.5 fold | 16 fold | 68600 | 75000 | 37400 | 3.97 fold | 3.86 fold | 2.06 fold | T3E, SQVLKA (ligand) APESSSTKKTQLQLSQLLVLLKAILNGINNYKNPKLTRMLTFKFYMPKKATELKHLQCLEEELKPLEEVLNLAQSKNFHLRPRDLISNINVIVLELKGSETTFMCEYADETATIVEFLNRWITFCQSIISTLT
33400 cts/min | 35000 cts/min | 13400 cts/min | 35.1 fold | 18.6 fold | 19 fold | 49800 | 53900 | 27900 | 4.09 fold | 4.03 fold | 2.34 fold | T3D, SQVLKA (ligand) APDSSSTKKTQLQLSQLLVLLKAILNGINNYKNPKLTRMLTFKFYMPKKATELKHLQCLEEELKPLEEVLNLAQSKNFHLRPRDLISNINVIVLELKGSETTFMCEYADETATIVEFLNRWITFCQSIISTLT
34200 cts/min | 27200 cts/min | 9790 cts/min | 2.07 fold | 2.99 fold | 4.1 fold | 62400 | 65700 | 31400 | 3.87 fold | 3.32 fold | 1.77 fold | T3N, SQVLKA (ligand) APNSSSTKKTQLQLSQLLVLLKAILNGINNYKNPKLTRMLTFKFYMPKKATELKHLQCLEEELKPLEEVLNLAQSKNFHLRPRDLISNINVIVLELKGSETTFMCEYADETATIVEFLNRWITFCQSIISTLT
28900 cts/min | 16800 cts/min | 5980 cts/min | 8.43 fold | 13.3 fold | 5.3 fold | 58400 | 40700 | 19300 | 4.15 fold | 2.9 fold | 1.45 fold | T3R, SQVLKA (ligand) APRSSSTKKTQLQLSQLLVLLKAILNGINNYKNPKLTRMLTFKFYMPKKATELKHLQCLEEELKPLEEVLNLAQSKNFHLRPRDLISNINVIVLELKGSETTFMCEYADETATIVEFLNRWITFCQSIISTLT
